Experiment [1] addresses T1, SLEV NS1 (Saint Louis encephalitis virus NS1) (Saint Louis encephalitis virus, UniProt P09732 790-1141).
T1 sequence: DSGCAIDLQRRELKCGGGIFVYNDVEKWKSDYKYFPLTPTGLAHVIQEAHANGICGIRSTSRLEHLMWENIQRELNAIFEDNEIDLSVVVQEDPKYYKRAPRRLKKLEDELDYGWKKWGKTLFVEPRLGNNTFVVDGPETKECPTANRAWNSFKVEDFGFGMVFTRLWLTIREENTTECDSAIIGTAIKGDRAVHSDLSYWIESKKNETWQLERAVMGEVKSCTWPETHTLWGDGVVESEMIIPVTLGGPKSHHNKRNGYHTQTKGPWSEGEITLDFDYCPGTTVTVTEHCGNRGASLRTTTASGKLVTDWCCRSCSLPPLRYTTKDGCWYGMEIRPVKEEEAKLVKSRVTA
Nature of the experiment: ELISA, 2B7 titrated on SLEV NS1, OD450nm. A general note: ELISA stands for enzyme-linked immunosorbent assay.

The target of the next experiment is T2, DENV4 NS1 (Dengue virus 4, UniProt P09866 775-1126).
T2 sequence: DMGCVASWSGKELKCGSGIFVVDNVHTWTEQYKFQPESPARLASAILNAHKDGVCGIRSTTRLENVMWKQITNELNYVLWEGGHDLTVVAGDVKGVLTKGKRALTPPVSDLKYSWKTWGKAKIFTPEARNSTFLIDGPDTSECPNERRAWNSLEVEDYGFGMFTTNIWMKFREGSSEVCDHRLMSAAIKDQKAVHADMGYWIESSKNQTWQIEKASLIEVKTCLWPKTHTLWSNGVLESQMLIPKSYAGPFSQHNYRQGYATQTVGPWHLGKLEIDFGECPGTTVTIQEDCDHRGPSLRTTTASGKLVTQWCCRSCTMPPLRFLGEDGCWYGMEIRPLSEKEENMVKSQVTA
Nature of the experiment: ELISA, 2B7 titrated on DENV4 NS1, OD450nm.

Experiment [2] addresses T3, USUV NS1 (Usutu virus NS1) (Usutu virus, UniProt Q5WPU5 794-1145).
T3 chain: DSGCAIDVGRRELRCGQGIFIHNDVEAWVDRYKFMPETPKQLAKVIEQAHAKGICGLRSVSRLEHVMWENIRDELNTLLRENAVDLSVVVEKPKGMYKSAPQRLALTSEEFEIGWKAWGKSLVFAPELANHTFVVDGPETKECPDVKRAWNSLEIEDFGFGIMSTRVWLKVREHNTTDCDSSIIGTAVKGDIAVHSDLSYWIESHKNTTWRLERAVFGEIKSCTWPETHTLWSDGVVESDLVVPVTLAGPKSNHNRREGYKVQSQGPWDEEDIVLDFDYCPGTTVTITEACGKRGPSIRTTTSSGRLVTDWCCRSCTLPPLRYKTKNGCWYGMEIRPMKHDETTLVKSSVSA
Nature of the experiment: ELISA, 2B7 titrated on USUV NS1, OD450nm.

Another experiment has as its target T4, DENV3 NS1 (Dengue virus 3, UniProt Q6YMS4 774-1125).
T4 sequence: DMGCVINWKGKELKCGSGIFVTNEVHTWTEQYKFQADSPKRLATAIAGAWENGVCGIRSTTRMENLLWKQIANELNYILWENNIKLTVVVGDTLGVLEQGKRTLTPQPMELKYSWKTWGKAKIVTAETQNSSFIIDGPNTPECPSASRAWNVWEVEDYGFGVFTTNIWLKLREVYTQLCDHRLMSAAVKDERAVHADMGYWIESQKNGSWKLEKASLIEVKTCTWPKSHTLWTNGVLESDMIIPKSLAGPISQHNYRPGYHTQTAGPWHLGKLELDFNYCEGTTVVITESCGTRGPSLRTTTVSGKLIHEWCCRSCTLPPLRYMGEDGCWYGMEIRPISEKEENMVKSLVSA
Kind of experiment: ELISA, 2B7 titrated on DENV3 NS1, OD450nm.

Experiment [3] addresses T5, WSLV NS1 (Wesselsbron virus NS1) (Wesselsbron virus, UniProt C5H431 771-1123).
T5 sequence: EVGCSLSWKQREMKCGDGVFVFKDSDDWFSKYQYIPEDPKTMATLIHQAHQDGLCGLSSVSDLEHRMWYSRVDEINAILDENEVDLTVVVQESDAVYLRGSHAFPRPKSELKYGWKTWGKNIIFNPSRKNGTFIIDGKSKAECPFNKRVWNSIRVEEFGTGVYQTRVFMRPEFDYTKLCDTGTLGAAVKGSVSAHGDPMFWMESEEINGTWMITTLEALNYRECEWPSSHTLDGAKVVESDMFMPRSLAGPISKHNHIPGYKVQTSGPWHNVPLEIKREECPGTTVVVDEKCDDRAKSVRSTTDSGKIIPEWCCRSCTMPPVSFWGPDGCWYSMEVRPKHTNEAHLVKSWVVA
Nature of the experiment: ELISA, 2B7 titrated on WSLV NS1, OD450nm.

For experiment [4], the target named is T6, recombinant NS1 wing domain (residues 38-151) (Dengue virus 2, UniProt P07564 813-926).
T6 sequence: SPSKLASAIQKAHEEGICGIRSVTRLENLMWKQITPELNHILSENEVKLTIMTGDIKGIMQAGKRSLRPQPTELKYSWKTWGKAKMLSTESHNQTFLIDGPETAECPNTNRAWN
Kind of experiment: direct ELISA on plates coated with recombinant NS1 domains, OD 405 nm.

The target in experiment [5] is T7, JEV NS1 (Japanese encephalitis virus NS1) (Japanese encephalitis virus, UniProt P0DOH7 795-1146).
T7 sequence: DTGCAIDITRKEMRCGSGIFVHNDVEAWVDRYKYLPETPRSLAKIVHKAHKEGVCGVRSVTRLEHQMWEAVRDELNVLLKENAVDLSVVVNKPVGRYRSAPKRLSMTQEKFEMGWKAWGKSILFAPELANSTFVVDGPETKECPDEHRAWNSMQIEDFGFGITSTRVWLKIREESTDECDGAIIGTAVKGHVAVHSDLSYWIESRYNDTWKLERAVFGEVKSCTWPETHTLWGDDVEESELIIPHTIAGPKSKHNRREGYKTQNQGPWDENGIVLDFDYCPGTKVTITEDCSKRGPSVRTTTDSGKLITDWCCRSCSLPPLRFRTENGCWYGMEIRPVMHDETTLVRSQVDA
Nature of the experiment: ELISA, 2B7 titrated on JEV NS1, OD450nm.

Experiment [6] addresses T8, DENV1 NS1 (Dengue virus 1, UniProt P17763 776-1127).
T8 construct: also called dengue virus serotype 1 NS1
T8 chain: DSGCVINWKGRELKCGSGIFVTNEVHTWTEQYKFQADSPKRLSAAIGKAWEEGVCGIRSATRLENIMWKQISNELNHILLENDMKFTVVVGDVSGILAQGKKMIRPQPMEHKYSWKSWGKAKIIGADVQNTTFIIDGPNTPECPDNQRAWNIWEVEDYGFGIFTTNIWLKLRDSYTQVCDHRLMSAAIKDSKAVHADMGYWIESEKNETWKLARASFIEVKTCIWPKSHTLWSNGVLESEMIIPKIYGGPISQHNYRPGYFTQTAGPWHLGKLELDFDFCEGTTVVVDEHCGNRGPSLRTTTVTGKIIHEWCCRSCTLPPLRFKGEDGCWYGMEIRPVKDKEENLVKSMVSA
Nature of the experiment: ELISA, 2B7 titrated on DENV1 NS1, OD450nm.

For experiment [7], the target named is T6, recombinant NS1 wing domain (residues …). Kind of experiment: BLI, domains on anti-His tips.
Experiment [8] addresses T8, DENV1 NS1. Nature of the experiment: crystal structure 3.3 Å.

B1: anti-DENV NS1 IgG2b mouse monoclonal antibody (mAb) 2B7 (antibody, V domains shown)
VH: EVQLQQSGPELVKPGASVKMSCKASGCTLTNCFMHWMKQKPGQDLEWIGYINPYNDMTKYSENFKGKATLTSDKSSSTAFMELSSLTSEDSAVYYCARGYLLRTGCFDYWGQGTTLTVSS
VL: NIVLTQSPASLAVSLGQRATISCRASESVDSYGYSFMHWYQQKPGQPPKVLIYLASNLESGVPARFSGSGSRTDFTLTIDPVEADDAATYYCQQNNENPLTFGAGTKLELKR
In the case of B1, the binding result was “binds” in experiment [1]; “binds” in the experiment with DENV4 NS1; “binds” in [2]; “binds” with DENV3 NS1; “binds” in experiment [3]; “no binding” in experiment [4]. Further, the binding result (in experiment [5]; with DENV1 NS1 [6]) was “binds” throughout.

B2: 2B7 Fab (Fab, V domains shown)
VH: EVQLQQSGPELVKPGASVKMSCKASGCTLTNCFMHWMKQKPGQDLEWIGYINPYNDMTKYSENFKGKATLTSDKSSSTAFMELSSLTSEDSAVYYCARGYLLRTGCFDYWGQGTTLTVSS
VL: NIVLTQSPASLAVSLGQRATISCRASESVDSYGYSFMHWYQQKPGQPPKVLIYLASNLESGVPARFSGSGSRTDFTLTIDPVEADDAATYYCQQNNENPLTFGAGTKLELK
As to B2, the values for the binding result (in experiment [7]; with DENV1 NS1 [8]) were “no binding” and “binds”, respectively.

The values are drawn from patent publication US20240002479A1 (REGENTS OF THE UNIVERSITY OF MICHIGAN, published 2024).
